Reference: paper PMC5026585 (ACS chemical biology, 2016)
Where a SMILES comes first, the peptide text is derived from it. [ ]: non-standard residue; d: D form. The star is where a group is joined. Benzoyl(4-tBu) = CC(C)(C)c1ccc(C(=O)*)cc1; Lys(Et2) = CCN(CC)CCCC[C@H](N)C(=O)O

Assays:
CDYL chromodomains = assay: selectivity profile of UNC3866, CDYL chromodomains; format: binding; conditions: reduced potency relative to CBX7 and CBX4
chromodomain of MPP8 = assay: selectivity profile of UNC3866, MPP8; format: binding; conditions: reduced potency relative to CBX7 and CBX4
[1] = target: PRC1 chromodomains (CBX2, -4, -6, -7, and -8); conditions: cited from earlier work
[2] = target: CBX7 chromodomain (chromobox protein homolog 7); assay: fluorescence polarisation
[3] = target: CBX8 chromodomain (chromobox protein homolog 8); assay: fluorescence polarisation
[4] = target: CDY1 chromodomain (Testis-specific chromodomain protein Y 1); assay: fluorescence polarisation
[5] = target: CDYL chromodomain (Chromodomain Y-like protein); assay: fluorescence polarisation
[6] = target: CDYL2 chromodomain (Chromodomain Y-like protein 2); assay: fluorescence polarisation
[7] = target: MPP8 chromodomain (M-phase phosphoprotein 8); assay: fluorescence polarisation

Kd [2] | Kd [3] | Kd [4] | Kd [5] | Kd [6] | Kd [7] | Molecule | selectivity, CDYL chromodomains relative to CBX7 and CBX4 (CDYL chromodomains) | selectivity, MPP8 relative to CBX7 and CBX4 (chromodomain of MPP8) | Kd [1]
 |  |  |  |  |  | CCN(CC)CCCC[C@H](NC(=O)[C@H](CC(C)C)NC(=O)[C@H](C)NC(=O)[C@H](Cc1ccccc1)NC(=O)c1ccc(C(C)(C)C)cc1)C(=O)N[C@@H](CO)C(=O)OC [UNC3866] ({Benzoyl(4-tBu)}-FAL[Lys(Et2)]S-OMe) | ~8 fold | ~30 fold | ~100 nM
93 nM | 666 nM | 6410 nM | 1010 nM | 710 nM | 4790 nM | UNC3866-FAM (peptide) |  |  | 
